Each block holds one binder with its values, some of them ahead of it.
What was measured:
[1] = molecular target: T1, 4H2883-AA; assay: two-hybrid library CCmax; details: mean of both orientations;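 further: natural log of median RNA to DNA barcode read ratio; higher means stronger binding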
T1 chain: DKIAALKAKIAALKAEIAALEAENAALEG

[2] = molecular target: T2, 4H2354-AA; assay: two-hybrid library CCmax;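 further: natural log of median RNA to DNA barcode read ratio; higher means stronger binding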
T2 chain: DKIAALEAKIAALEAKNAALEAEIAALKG

[3] = molecular target: T3, 4H2944-AA; assay: two-hybrid library CCmax; details: mean of both orientations;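 further: natural log of median RNA to DNA barcode read ratio; higher means stronger binding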
T3 chain: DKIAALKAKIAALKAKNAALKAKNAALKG

[4] = molecular target: T4, 4H605-AA; assay: two-hybrid library CCmax; details: mean of both orientations;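 further: natural log of median RNA to DNA barcode read ratio; higher means stronger binding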
T4 chain: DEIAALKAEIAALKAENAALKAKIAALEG

[5] = molecular target: T5, 4H335-AA; assay: two-hybrid library CCmax; details: mean of both orientations
T5 chain: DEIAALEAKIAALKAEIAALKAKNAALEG

[6] = molecular target: T6, 4H429-AA; assay: two-hybrid library CCmax; details: mean of both orientations
T6 chain: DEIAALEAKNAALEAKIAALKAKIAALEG

[7] = molecular target: T7, 4H780-AA; assay: two-hybrid library CCmax; details: mean of both orientations
T7 chain: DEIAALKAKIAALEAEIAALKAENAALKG

[8] = molecular target: T8, 4H993-AA; assay: two-hybrid library CCmax; details: mean of both orientations
T8 chain: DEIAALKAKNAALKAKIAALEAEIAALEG

[9] = molecular target: T9, 4H3427-AA; assay: two-hybrid library CCmax; details: mean of both orientations
T9 chain: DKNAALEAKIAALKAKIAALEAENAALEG

[10] = molecular target: T10, 4H2505-AA; assay: two-hybrid library CCmax; details: mean of both orientations
T10 chain: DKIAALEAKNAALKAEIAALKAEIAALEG

[11] = molecular target: T11, 4H3655-AA; assay: two-hybrid library CCmax; details: mean of both orientations
T11 chain: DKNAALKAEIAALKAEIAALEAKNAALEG

[12] = molecular target: T12, 4H2754-AA; assay: two-hybrid library CCmax; details: mean of both orientations
T12 chain: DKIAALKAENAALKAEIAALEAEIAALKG

[13] = molecular target: T13, 4H3921-AA; assay: two-hybrid library CCmax; details: mean of both orientations
T13 chain: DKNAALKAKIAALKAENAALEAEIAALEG

[14] = molecular target: T14, 4H794-AA; assay: two-hybrid library CCmax; details: mean of both orientations
T14 chain: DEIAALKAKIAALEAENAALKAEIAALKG

[15] = molecular target: T15, 4H2393-AA; assay: two-hybrid library CCmax; details: mean of both orientations
T15 chain: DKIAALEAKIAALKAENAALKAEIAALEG

[16] = molecular target: T16, 4H454-AA; assay: two-hybrid library CCmax; details: mean of both orientations
T16 chain: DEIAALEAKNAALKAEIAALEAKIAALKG

[17] = molecular target: T17, 4H906-AA; assay: two-hybrid library CCmax; details: mean of both orientations
T17 chain: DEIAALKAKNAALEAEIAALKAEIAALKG

[18] = molecular target: T18, 4H3606-AA; assay: two-hybrid library CCmax; details: mean of both orientations
T18 chain: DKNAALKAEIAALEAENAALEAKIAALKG

[19] = molecular target: T19, 4H2617-AA; assay: two-hybrid library CCmax; details: mean of both orientations
T19 chain: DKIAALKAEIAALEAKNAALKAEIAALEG

[20] = molecular target: T20, 4H342-AA; assay: two-hybrid library CCmax; details: mean of both orientations
T20 chain: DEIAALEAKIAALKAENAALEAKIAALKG

[21] = molecular target: T21, 4H317-AA; assay: two-hybrid library CCmax; details: mean of both orientations
T21 chain: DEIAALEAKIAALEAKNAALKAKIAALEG

[22] = molecular target: T22, 4H3844-AA; assay: two-hybrid library CCmax; details: mean of both orientations
T22 chain: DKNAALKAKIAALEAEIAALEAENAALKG

[23] = molecular target: T23, 4H566-AA; assay: two-hybrid library CCmax; details: mean of both orientations
T23 chain: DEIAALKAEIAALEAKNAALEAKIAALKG

[24] = molecular target: T24, 4H3343-AA; assay: two-hybrid library CCmax; details: mean of both orientations
T24 chain: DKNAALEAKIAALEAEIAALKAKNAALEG

[25] = molecular target: T25, 4H2837-AA; assay: two-hybrid library CCmax; details: mean of both orientations
T25 chain: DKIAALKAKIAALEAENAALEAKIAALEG

[26] = molecular target: T26, 4H3112-AA; assay: two-hybrid library CCmax; details: mean of both orientations
T26 chain: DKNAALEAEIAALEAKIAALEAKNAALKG

[27] = molecular target: T27, 4H717-AA; assay: two-hybrid library CCmax; details: mean of both orientations
T27 chain: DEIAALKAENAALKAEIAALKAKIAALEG

[28] = molecular target: T28, 4H678-AA; assay: two-hybrid library CCmax; details: mean of both orientations
T28 chain: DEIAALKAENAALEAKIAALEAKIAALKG

[29] = molecular target: T29, 4H2729-AA; assay: two-hybrid library CCmax; details: mean of both orientations
T29 chain: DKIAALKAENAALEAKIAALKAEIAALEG

[30] = molecular target: T30, 4H2642-AA; assay: two-hybrid library CCmax; details: mean of both orientations
T30 chain: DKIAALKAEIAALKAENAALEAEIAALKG

[31] = molecular target: T31, 4H2466-AA; assay: two-hybrid library CCmax
T31 chain: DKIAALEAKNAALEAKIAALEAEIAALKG

[32] = molecular target: T32, 4H2575-AA; assay: two-hybrid library CCmax; details: mean of both orientations
T32 chain: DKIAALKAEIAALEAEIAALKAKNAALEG

[33] = molecular target: T33, 4H3627-AA; assay: two-hybrid library CCmax; details: mean of both orientations
T33 chain: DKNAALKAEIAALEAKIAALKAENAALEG

[34] = molecular target: T34, 4H2949-AA; assay: two-hybrid library CCmax; details: mean of both orientations
T34 chain: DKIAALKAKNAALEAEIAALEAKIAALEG

[35] = molecular target: T35, 4H48-AA; assay: two-hybrid library CCmax; details: mean of both orientations
T35 chain: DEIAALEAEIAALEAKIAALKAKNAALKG

[36] = molecular target: T36, 4H881-AA; assay: two-hybrid library CCmax; details: mean of both orientations
T36 chain: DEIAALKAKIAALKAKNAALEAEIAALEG

[37] = molecular target: T37, 4H3378-AA; assay: two-hybrid library CCmax; details: mean of both orientations
T37 chain: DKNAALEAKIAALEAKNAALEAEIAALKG

[38] = molecular target: T38, 4H3413-AA; assay: two-hybrid library CCmax; details: mean of both orientations
T38 chain: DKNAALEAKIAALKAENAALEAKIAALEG

[39] = molecular target: T39, 4H3162-AA; assay: two-hybrid library CCmax; details: mean of both orientations
T39 chain: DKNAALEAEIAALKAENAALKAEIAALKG

[40] = molecular target: T40, 4H384-AA; assay: two-hybrid library CCmax; details: mean of both orientations
T40 chain: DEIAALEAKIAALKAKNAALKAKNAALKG

[41] = molecular target: T41, 4H2648-AA; assay: two-hybrid library CCmax
T41 chain: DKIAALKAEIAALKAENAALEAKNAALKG

[42] = molecular target: T42, 4H3133-AA; assay: two-hybrid library CCmax; details: mean of both orientations
T42 chain: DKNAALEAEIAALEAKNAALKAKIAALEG

[43] = molecular target: T43, 4H3718-AA; assay: two-hybrid library CCmax; details: mean of both orientations
T43 chain: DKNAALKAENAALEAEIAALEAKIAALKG

[44] = molecular target: T44, 4H3631-AA; assay: two-hybrid library CCmax; details: mean of both orientations
T44 chain: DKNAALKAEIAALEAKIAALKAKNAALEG

[45] = molecular target: T45, 4H3697-AA; assay: two-hybrid library CCmax; details: mean of both orientations
T45 chain: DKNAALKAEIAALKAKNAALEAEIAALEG

[46] = molecular target: T46, 4H3588-AA; assay: two-hybrid library CCmax; details: mean of both orientations
T46 chain: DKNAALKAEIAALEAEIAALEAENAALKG

[47] = molecular target: T47, 4H3865-AA; assay: two-hybrid library CCmax; details: mean of both orientations
T47 chain: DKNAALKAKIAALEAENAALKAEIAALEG

[48] = molecular target: T48, 4H340-AA; assay: two-hybrid library CCmax; details: mean of both orientations
T48 chain: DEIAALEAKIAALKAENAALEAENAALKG

[49] = molecular target: T49, 4H2907-AA; assay: two-hybrid library CCmax; details: mean of both orientations
T49 chain: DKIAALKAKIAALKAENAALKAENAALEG

[50] = molecular target: T50, 4H32-AA; assay: two-hybrid library CCmax; details: mean of both orientations
T50 chain: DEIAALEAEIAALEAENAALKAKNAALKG

[51] = molecular target: T51, 4H3056-AA; assay: two-hybrid library CCmax; details: mean of both orientations
T51 chain: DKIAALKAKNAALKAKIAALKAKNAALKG

[52] = molecular target: T52, 4H697-AA; assay: two-hybrid library CCmax; details: mean of both orientations
T52 chain: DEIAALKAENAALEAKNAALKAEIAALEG

[53] = molecular target: T53, 4H982-AA; assay: two-hybrid library CCmax; details: mean of both orientations
T53 chain: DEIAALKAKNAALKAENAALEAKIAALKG

[54] = molecular target: T54, 4H568-bH; assay: two-hybrid library CCNG1
T54 chain: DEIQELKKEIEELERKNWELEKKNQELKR

[55] = molecular target: T55, 4H607-bH; assay: two-hybrid library CCNG1
T55 chain: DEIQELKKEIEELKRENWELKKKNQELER

[56] = molecular target: T56, 4H967-bH; assay: two-hybrid library CCNG1
T56 chain: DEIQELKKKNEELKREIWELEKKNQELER

[57] = molecular target: T57, 4H918-bH; assay: two-hybrid library CCNG1
T57 chain: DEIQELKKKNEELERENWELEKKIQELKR

[58] = molecular target: T58, 4H462-bH; assay: two-hybrid library CCNG1
T58 chain: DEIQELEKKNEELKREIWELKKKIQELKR

[59] = molecular target: T59, 4H72-bH; assay: two-hybrid library CCNG1
T59 chain: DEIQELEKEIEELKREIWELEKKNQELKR

[60] = molecular target: T60, 4H953-bH; assay: two-hybrid library CCNG1
T60 chain: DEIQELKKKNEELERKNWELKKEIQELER

[61] = molecular target: T61, 4H883-bH; assay: two-hybrid library CCNG1
T61 chain: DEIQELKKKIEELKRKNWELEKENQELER

[62] = molecular target: T62, 4H797-bH; assay: two-hybrid library CCNG1
T62 chain: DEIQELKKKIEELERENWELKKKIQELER

[63] = molecular target: T63, 4H906-bN; assay: two-hybrid library CCNG1
T63 chain: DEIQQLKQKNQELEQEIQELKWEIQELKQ

[64] = molecular target: T64, 4H687-bH; assay: two-hybrid library CCNG1
T64 chain: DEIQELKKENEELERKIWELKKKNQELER

interaction score [1]: -1.31
interaction score [2]: 2.28
interaction score [3]: -1.22
interaction score [4]: -1.45
interaction score [5]: -1.35
interaction score [6]: -1.58
interaction score [7]: -1.35
interaction score [8]: -1.38
interaction score [9]: -1.67
interaction score [10]: 0.629
interaction score [11]: -1.28
interaction score [12]: -1.42
interaction score [13]: -2.02
interaction score [14]: -1.09
interaction score [15]: -0.967
interaction score [16]: -0.846
interaction score [17]: -1.21
interaction score [18]: -0.995
interaction score [19]: 0.763
interaction score [20]: 1.11
interaction score [21]: 0.391
interaction score [22]: -1.42
interaction score [23]: 0.225
interaction score [24]: -1.47
interaction score [25]: -0.0493
interaction score [26]: -1.26
interaction score [27]: -1.79
interaction score [28]: -1.46
interaction score [29]: -1.03
interaction score [30]: -0.757
interaction score [31]: -1.18
interaction score [32]: -1
interaction score [33]: -1.59
interaction score [34]: -1.56
interaction score [35]: -1.39
interaction score [36]: -0.238
Binder: DKIAALEAKIAALEAKNAALEAEIAALKG [4H2354-AA]

interaction score [37]: -1.8
interaction score [38]: -1.8
interaction score [39]: -1.38
interaction score [40]: 1.28
interaction score [41]: 0.455
interaction score [42]: -0.651
interaction score [43]: -1.35
interaction score [44]: -0.735
interaction score [18]: -1.35
interaction score [45]: -1.06
interaction score [46]: 0.769
interaction score [47]: -1.49
interaction score [48]: 1.21
interaction score [49]: 1.45
interaction score [50]: 1.9
interaction score [51]: -1.84
interaction score [52]: -1.14
interaction score [53]: -0.309
Binder: DKIAALKAEIAALKAENAALEAKNAALKG [4H2648-AA]

interaction score [54]: 0.229
interaction score [55]: -0.483
interaction score [56]: -0.847
interaction score [57]: 0.264
interaction score [58]: 0.452
interaction score [59]: 0.335
interaction score [60]: -0.0754
interaction score [61]: -0.231
interaction score [62]: -0.33
interaction score [63]: -2.48
interaction score [64]: 1.31
Binder: DEIQELEKKNEELKREIWELKKKIQELKR [4H462-bH]

From publication PMC10397247
